Measured values from the supplement of paper PMC12764529.
± gives the half width of the 95% confidence interval.

test: folding stability dG unfold from chymotrypsin proteolysis; higher = more stable
Method in brief: (§1)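 Designed mini-proteins (under 80 residues, no cysteine) in a PA-tagged cDNA display construct were digested with trypsin and chymotrypsin. Each protease was used at 11 concentrations (threefold dilutions) plus a no-protease condition, followed by sequencing. K50 was inferred by Bayesian fitting of sequencing counts, and unfolding free energy was derived against a sequence-predicted unfolded-state K50 and a shared folded-state K50, per protease or combined. Only designs with AlphaFold2 dimer inter-PAE above 15 were kept.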

| Sequence | folding stability dG unfold [kcal/mol] |
| --- | --- |
| SAGMKIEVKRLPGPGDYLFTLVDPELAARLKAVYPGLEEVIFPVGGPDSVPEEEIKERAEKELKELLLSAGG [r19_298_JUSTAS] | -0.66 ± 0.64 |
| SAGGSAGGEIKAKVPYEKYPKYYKVKVEIYDPNTKKKIEYEALFPKGTKISAEEIAKKIVKKIKSAGGSAGG [r6_233_TrMRF] | 1.54 ± 0.085 |
| SAGGSELKPGDLVEVKVTVEFDEETGKATVEVEFNGKKLTVEVELEENQPPTVEVTLLVRIDKIEPSAGGSA [r2_113_TrROS_Hall] | 2.48 ± 0.1 |
| SAGGKEYTAKVVEIKKVGNKIFIKIKLSDGRELTIEIKTPEEAKKLKVGDTVKITVNEDGSLTIEVLSAGGS [r16_2_TrROS_Hall] | 4.33 ± 0.064 |
| SAGGSGMIKTETTVTITFPGGETVSFPATVTYDPETGKTEVEVNLPEAALAELKERAPDAEVNVLLSAGGSA [r2_409_JUSTAS] | 0.681 ± 0.014 |
| SAMETYEYPVTGDSATFTVPVPPDHIAKVTVHYPSGSTDTVVPPGVTTTFTVPSSNATVTITIYPRSALSAG [r14_882_JUSTAS] | 1.53 ± 0.11 |
| SFHVERDPEDNTIYIHFPPGMDPLELAKSLLKELREQQDDGPIKIHVHYGDWVFEIDIKKGKIEVRPPGESA [r9_224_TrROS] | 1.19 ± 0.16 |
| SAGGSAGGSAGGLDLSVPGLTSVTPVLLEDPRGYVTTVYTTTYPDGTVLTHTTVLPASLLSAGGSAGGSAGG [r7_214_JUSTAS] | 1.16 ± 0.031 |
| SAMPVFTFPVEIPGPEYTPEEIVAILKEAAAKLNLPVDEEVIRELAEKALAEGTTVADIIEEILKRGLGSAG [r14_364_JUSTAS] | 1.88 ± 0.045 |
| SAGGMVLEVEFTGPLSEVEAFIEELKAKPGVELLSVEIEVKPLPGPPVRYRVKLEVKIYDPENPVLLSAGGS [r8_374_JUSTAS] | 3.07 ± 0.077 |
| SAGGSLPPSTVIESEIVIEIEIENNISGIPGKTEKAFIIIKVTVTTDENGNLSSSVEIEIIPAKDLSAGGSA [r2_448_TrMRF] | 2.97 ± 0.21 |
| SAGGSIPADTVATLTLPDRDLAVRVELVDGTPRYLVTGPDGTPVGTLTPEEFAAFVAALPADARLDLRSAGG [r13_657_JUSTAS] | 1.32 ± 0.081 |
| SAGGELVLLSESESVFTSPDGSRTVVRTLLTERPGDLLVEITTTTTIEPESGAVTTTTTTRVLPRRESAGGS [r8_264_JUSTAS] | 3.021 ± 0.013 |
| SAMKWSEVVVSYPSDRWYAEIYTPGPGGELTSVSYREFDSLEELEQWIEEKAPPGEVEVKREPAPPELLSAG [r14_964_JUSTAS] | 0.722 ± 0.094 |
| SAGGSAGGSAGSSMTSTVTEVSTLSNGGTVVTTTTTSYYPSTGTTTTSTTTTTFTDGKAVSAGGSAGGSAGG [r11_337_JUSTAS] | 0.932 ± 0.027 |
| SAGGMTITIEKEGDTLKVTITIRDAATNETYTVEATLTRKEDGSLTLEIRFEDGSTKTINLKDIKLVSAGGS [r16_154_TrROS_Hall] | 4.11 ± 0.41 |
| SAGGSAGGSAKVYVNPDNNKVAVVLPPPGDSYLVLLFDPETGEVRLIEAPPEEVEELLKKGSAGGSAGGSAG [r3_162_TrMRF] | 1.25 ± 0.097 |
| SAGQWVKFTLPIYKMKYEKDKDGKPEIKEMKPIPKFDIEARVDEDGNVRIRFGGNEREFPPGESLEDLISAG [r14_909_TrROS] | 0.482 ± 0.28 |
| SAGGSAPPEWRTIMIPMKPDDVDNAIEELRNELPPGRNINIHLQDPEPGRYFMITIRGNKIEIHFMSAGGSA [r15_257_TrROS] | 2.12 ± 0.21 |
| SAGGSAGGSEDKYIIRVEVLLPNKKRTYVLEEPEKGIEAFKKRLEKEYPDEPIVEVRIEVLPASAGGSAGGS [r12_429_TrMRF] | 1.37 ± 0.11 |
| SAGGSAGGGMSLEAPIGEIEKPEGTDTVVITVYENGKWHTIPLPNFKNIKIEKDPNSDVVTILLSAGGSAGG [r6_806_JUSTAS] | 1.71 ± 0.13 |

| Sequence | folding stability dG unfold [kcal/mol] |
| --- | --- |
| SAGSNKKITAEELAKLLEEKFKEKFPDAEIKVHAHAEPRPDDKLIIHVHFEIYRKKPKIGEFDVVIEFESAG [r5_696_TrMRF] | 2.76 ± 0.043 |
| SAGGSAGGSAGSSVKTYTGKGKKITITKLDNGTYIVTTPDKTSTYPPSVSEEEVIKKALESAGGSAGGSAGG [r17_272_JUSTAS] | -0.0797 ± 0.44 |
| SAMKKIKLSPEALELAKKLPPDYKVTEIKVEKLEDGTVVVTLTVEKTNENGEKEKVELTIVLDKDGKPVSAG [r14_420_TrROS_Hall] | 0.0295 ± 0.46 |
| SMKIKIPVLIKVDPSETIEEVLEKVKEIAEEIAKFLESKGGPVEVKADVEPIPEIDYVIVTVEAYVPEEASA [r9_1161_TrMRF] | 1.8 ± 0.082 |
| SAGGMYILELTFTTPTSTTPRTVEVPPGNYEEAAKALREELAAEAGAADLEVTFTVYKVAPDGTLVEESAGG [r13_877_JUSTAS] | 2.51 ± 0.097 |
| SAGGSDYYIRVRIRIYKPTPEDMQEGKPIPEVEIWFPFDSVEEIKEFLENLPPNIKVDVDWFPPEDSAGGSA [r2_25_TrROS] | 4.21 ± 0.11 |
| SAGIFRFPDGQEITIPYYARTPNGKITPSEIKEQIKEFLAEQPGVKITEIEVEHEDNYVRVTITVRLPKSAG [r5_688_TrROS] | 0.316 ± 0.42 |
| SAGGSAGGSAGPRYRLRIELRLERNEDGSLSLSAKIEIERIEPPPPPPRVVLYNGKLYLLSAGGSAGGSAGG [r17_418_TrROS_Hall] | 4.35 ± 0.21 |
| SAGGSAGGSAGGMIKIKLGDKWVDVAEVKEYPDSIIVYNPKTNTKITISKKNPEDPNILISAGGSAGGSAGG [r7_391_JUSTAS] | 1.47 ± 0.081 |
| SAGGSASSMTTTKKLSTGEKSVVELSTSPSTVTLVTTDPETGTVTVTTYTPSGTGPVATTTTVPAPSAGGSA [r15_137_JUSTAS] | 0.499 ± 0.14 |
| SAGGSARVVILPDGYLLVEVDGKPFLFGPNDEVEIEEEGDELILRLRLRDKDGKEVGEFPFRFRLESAGGSA [r15_424_TrMRF] | 3.026 ± 0.016 |
| SIEFKEGQWFPIREIDNNHIEWKHNNEPYKIPPDEIDEPGDWIRITNGRIPEIRPPPPPPVDPEDAKKKKSA [r9_842_TrROS] | 4.12 ± 0.32 |
| SAGGSAGGSAGTVEEIAKYFAGEFPNYKVNIDVEWEGGKITSVDIEWEVVPPPPPESPGKSAGGSAGGSAGG [r11_197_TrROS] | 0.309 ± 0.18 |
| SADPGDTVELEFWLPPGMNPEFVEQMEDEIRNILRDLGLEVDVKVEPDPDNGYVPVTITITKEQLKDLFSAG [r14_602_TrROS] | 1.74 ± 0.1 |
| SAGGSMPTLKPDEILTLSSTTEPLPSGGLRGRTVTLKKIPGTGKFVTITKYSYQPPDGPITSATEILLSAGG [r13_263_JUSTAS] | 0.585 ± 0.26 |
| SAKKTITLTITNEDGSTFTITITDNKITITNKDNGLVAEAEILPDGTIKLKIYNKNGELIAEITLKIKDSAG [r14_213_TrROS_Hall] | 4.32 ± 0.049 |
| SGVEYIEIPLEVTLDAPLEKAFEFLEDLAEEFGLGDIEVLEVEVDPETGKVRVKALARIAIAPPPPPSLESA [r9_918_TrMRF] | 3.53 ± 0.11 |
| SAGGSAGGSAKPNWVIIEMTIQIPEGDPEEIKEIMEPFGWEITGVDNNYIKVSILMPPGAKISAGGSAGGSA [r18_168_TrROS] | 1.14 ± 0.043 |
| SAGGSAGGSAGSKKKRVITIWIPPNQSIEEAKNFMDEGFPIKEIDVQTRPDGHMMVTITLSAGGSAGGSAGG [r11_97_TrROS] | 1.05 ± 0.14 |
| SAGGSAGGSANMPPEELADWIADKFQQRHGHPVKEIEVEHDPENNNYTITVEFDDKERTITLSAGGSAGGSA [r18_145_TrROS] | 0.839 ± 0.28 |
| SAGGSAGGSMTFRVEVFNKKTGKVETIEVEGSLDELKALAPPGALVKIEVDGKTITIPAEELKSAGGSAGGS [r20_36_TrROS_Hall] | 1.75 ± 0.059 |

test: folding stability dG unfold (combined trypsin and chymotrypsin); higher = more stable
Method in brief: as §1

| Sequence | folding stability dG unfold [kcal/mol] |
| --- | --- |
| SAGMKIEVKRLPGPGDYLFTLVDPELAARLKAVYPGLEEVIFPVGGPDSVPEEEIKERAEKELKELLLSAGG [r19_298_JUSTAS] | -0.268 ± 0.31 |
| SAGGSAGGEIKAKVPYEKYPKYYKVKVEIYDPNTKKKIEYEALFPKGTKISAEEIAKKIVKKIKSAGGSAGG [r6_233_TrMRF] | 1.26 ± 0.24 |
| SAGGSELKPGDLVEVKVTVEFDEETGKATVEVEFNGKKLTVEVELEENQPPTVEVTLLVRIDKIEPSAGGSA [r2_113_TrROS_Hall] | 2.46 ± 0.15 |
| SAGGKEYTAKVVEIKKVGNKIFIKIKLSDGRELTIEIKTPEEAKKLKVGDTVKITVNEDGSLTIEVLSAGGS [r16_2_TrROS_Hall] | 4.29 ± 0.074 |
| SAGGSGMIKTETTVTITFPGGETVSFPATVTYDPETGKTEVEVNLPEAALAELKERAPDAEVNVLLSAGGSA [r2_409_JUSTAS] | 1.29 ± 0.046 |
| SAMETYEYPVTGDSATFTVPVPPDHIAKVTVHYPSGSTDTVVPPGVTTTFTVPSSNATVTITIYPRSALSAG [r14_882_JUSTAS] | 1.34 ± 0.068 |
| SFHVERDPEDNTIYIHFPPGMDPLELAKSLLKELREQQDDGPIKIHVHYGDWVFEIDIKKGKIEVRPPGESA [r9_224_TrROS] | 1.23 ± 0.18 |
| SAGGSAGGSAGGLDLSVPGLTSVTPVLLEDPRGYVTTVYTTTYPDGTVLTHTTVLPASLLSAGGSAGGSAGG [r7_214_JUSTAS] | 1.16 ± 0.024 |
| SAMPVFTFPVEIPGPEYTPEEIVAILKEAAAKLNLPVDEEVIRELAEKALAEGTTVADIIEEILKRGLGSAG [r14_364_JUSTAS] | 2.52 ± 0.077 |
| SAGGMVLEVEFTGPLSEVEAFIEELKAKPGVELLSVEIEVKPLPGPPVRYRVKLEVKIYDPENPVLLSAGGS [r8_374_JUSTAS] | 2.74 ± 0.37 |
| SAGGSLPPSTVIESEIVIEIEIENNISGIPGKTEKAFIIIKVTVTTDENGNLSSSVEIEIIPAKDLSAGGSA [r2_448_TrMRF] | 3.26 ± 0.41 |
| SAGGSIPADTVATLTLPDRDLAVRVELVDGTPRYLVTGPDGTPVGTLTPEEFAAFVAALPADARLDLRSAGG [r13_657_JUSTAS] | 1.15 ± 0.068 |
| SAGGELVLLSESESVFTSPDGSRTVVRTLLTERPGDLLVEITTTTTIEPESGAVTTTTTTRVLPRRESAGGS [r8_264_JUSTAS] | 2.8 ± 0.038 |
| SAMKWSEVVVSYPSDRWYAEIYTPGPGGELTSVSYREFDSLEELEQWIEEKAPPGEVEVKREPAPPELLSAG [r14_964_JUSTAS] | 0.967 ± 0.051 |
| SAGGSAGGSAGSSMTSTVTEVSTLSNGGTVVTTTTTSYYPSTGTTTTSTTTTTFTDGKAVSAGGSAGGSAGG [r11_337_JUSTAS] | 1.05 ± 0.03 |
| SAGGMTITIEKEGDTLKVTITIRDAATNETYTVEATLTRKEDGSLTLEIRFEDGSTKTINLKDIKLVSAGGS [r16_154_TrROS_Hall] | 3.76 ± 0.47 |
| SAGGSAGGSAKVYVNPDNNKVAVVLPPPGDSYLVLLFDPETGEVRLIEAPPEEVEELLKKGSAGGSAGGSAG [r3_162_TrMRF] | 0.845 ± 0.14 |
| SAGQWVKFTLPIYKMKYEKDKDGKPEIKEMKPIPKFDIEARVDEDGNVRIRFGGNEREFPPGESLEDLISAG [r14_909_TrROS] | 0.478 ± 0.24 |
| SAGGSAPPEWRTIMIPMKPDDVDNAIEELRNELPPGRNINIHLQDPEPGRYFMITIRGNKIEIHFMSAGGSA [r15_257_TrROS] | 2.29 ± 0.17 |
| SAGGSAGGSEDKYIIRVEVLLPNKKRTYVLEEPEKGIEAFKKRLEKEYPDEPIVEVRIEVLPASAGGSAGGS [r12_429_TrMRF] | 1.19 ± 0.1 |
| SAGGSAGGGMSLEAPIGEIEKPEGTDTVVITVYENGKWHTIPLPNFKNIKIEKDPNSDVVTILLSAGGSAGG [r6_806_JUSTAS] | 1.52 ± 0.18 |
